Data published in paper PMC9352680, “A comprehensive thermodynamic model for RNA binding by the Saccharomyces cerevisiae Pumilio protein PUF4”.
Where a chain is given by its changes, count along the chain named. Names may count otherwise.

Molecular target: T1, PUF4 RNA-binding domain (Saccharomyces cerevisiae, UniProt P25339 537-888)
T1 sequence: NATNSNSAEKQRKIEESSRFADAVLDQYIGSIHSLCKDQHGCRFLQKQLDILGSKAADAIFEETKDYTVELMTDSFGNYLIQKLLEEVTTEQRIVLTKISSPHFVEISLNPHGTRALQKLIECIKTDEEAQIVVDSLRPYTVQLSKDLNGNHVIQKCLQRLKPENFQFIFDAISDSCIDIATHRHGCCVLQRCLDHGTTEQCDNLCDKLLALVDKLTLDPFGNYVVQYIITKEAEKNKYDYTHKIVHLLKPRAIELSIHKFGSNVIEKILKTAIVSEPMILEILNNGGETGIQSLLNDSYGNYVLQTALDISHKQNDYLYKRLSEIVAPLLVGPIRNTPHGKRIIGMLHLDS
Experiment: Mg; RNA-MaP; 20 mM Na-HEPES pH 7.4, 30 mM KOAc, 0.75 mM MgCl2, 0.1% Tween-20, 5% glycerol, 0.1 mg/mL BSA, 2 mM DTT; 25 C; 0.0125-409.6 nM protein
Details: tags: N-His6-TEV cleaved; C-SNAP kept, Cy3B-labelled; label: tethered on chip by stalled RNA polymerase

UCUCUUUGUUUUAUGAUCUCUU (ssRNA) [Ib_S1_P5E.1_K5.1_C5.1_H5.1_[A4T]_A5.1_F5.1_[T9G]_T5.1] was tested, and the Kd was 981 nM.

With UCUCUUUGUGUUAUGAUCUCUU (ssRNA) [Ib_S1_P5E.1_K5.1_C5.1_H5.1_[A4G]_A5.1_F5.1_[T9G]_T5.1] the Kd was 750 nM.

B1: Id_ii_S2_P4E.2_K4.1_C4.2_[C-2G]_[T-1G]_H4.1_A4.1_F4.1_T4.2_[G10T] (ssRNA)
RNA: UUUGAUUAAUAUGAUAUCGUUCUUUCUGGUGUAUAUUAUUUUCUUUCUCGAUAUCAUAUUAAUCUUU
With B1 the Kd was 0.435 nM.

B2: Id_ii_S2_P4E.2_K4.1_C4.2_[C-2G]_[T-1C]_H4.1_A4.1_F4.1_T4.2_[G10A]_[T11A] (ssRNA)
RNA: B1 RNA with G29C, U39A, U40A
For B2, the Kd was 0.738 nM.

B3: Id_ii_S2_P4E.2_K4.1_C4.2_[C-2G]_[T-1C]_H4.1_A4.1_F4.1_T4.2_[G10T]_[T11G] (ssRNA)
RNA: B1 RNA with G29C, U40G
B3 gave a Kd of 0.82 nM.

B4: Id_ii_S2_P4E.2_K4.1_C4.2_[C-2G]_[T-1C]_H4.1_A4.1_F4.1_T4.2_[G10A] (ssRNA)
RNA: B1 RNA with G29C, U39A
With B4 the Kd was 0.535 nM.

B5: Id_ii_S2_P4E.2_K4.1_C4.2_[C-2G]_[T-1C]_H4.1_A4.1_F4.1_T4.2_[G10T] (ssRNA)
RNA: B1 RNA with G29C
B5 gave a Kd of 0.289 nM.

B6: Id_ii_S2_P4E.2_K4.1_C4.2_[C-2G]_[T-1C]_H4.1_A4.1_F4.1_T4.2_[G10C] (ssRNA)
RNA: B1 RNA with G29C, U39C
B6 was tested, and the Kd was 0.667 nM.

B7: Id_ii_S2_P4E.2_K4.1_C4.2_[C-2G]_[T-1C]_H4.1_A4.1_F4.1_T4.2_[G10C]_[T11C] (ssRNA)
RNA: B1 RNA with G29C, U39C, U40C
Binder B7 has a Kd of 1.25 nM.

B8: Id_ii_S2_P4E.2_K4.1_C4.2_[C-2G]_[T-1G]_H4.1_A4.1_F4.1_T4.2_[G10A]_[T11A] (ssRNA)
RNA: B1 RNA with U39A, U40A
Work on B8 yielded a Kd of 1.5 nM.

B9: Id_ii_S2_P4E.2_K4.1_C4.2_[C-2G]_[T-1C]_H4.1_A4.1_F4.1_T4.2_[G10T]_[T11A] (ssRNA)
RNA: B1 RNA with G29C, U40A
For B9, the Kd was 0.822 nM.

UCUCUUUGUCUUAUCAUCUCUU (ssRNA) [Ib_S1_P5E.1_K5.1_C5.1_H5.1_[A4C]_A5.1_F5.1_[T9C]_T5.1] was tested, and the Kd was 2040 nM.

UCUCUUUGUAUUAUUCUCUCUU (ssRNA) [Ia_S1_P5E.1_K5.1_C5.1_H5.1_A5.1_F5.1_[A10C]_T5.1] gave a Kd of 16.4 nM.

UCUCUUUGUGUUAUAAUCUCUU (ssRNA) [Ib_S1_P5E.1_K5.1_C5.1_H5.1_[A4G]_A5.1_F5.1_[T9A]_T5.1] showed a Kd of 57.8 nM.

With UCUCUUUGUCUUAUAAUCUCUU (ssRNA) [Ib_S1_P5E.1_K5.1_C5.1_H5.1_[A4C]_A5.1_F5.1_[T9A]_T5.1] the Kd was 102 nM.

B10: Id_ii_S2_P3E.4_K3.3_C3.2_[C-2T]_[T-1C]_H3.3_A3.1_F3.1_T3.2_[T9C]_[A10T] (ssRNA)
RNA: UUUGAUUAAUAUGAUAUCGUUCUUUCUUCACACUAUACUUUCUUUCUCGAUAUCAUAUUAAUCUUU
B10 gave a Kd of 1260 nM.

B11: Id_ii_S2_P3E.4_K3.3_C3.2_[T-1A]_H3.3_A3.1_F3.1_T3.2_[T9A]_[A10T] (ssRNA)
RNA: B10 RNA with U28C, C29A, C38A
B11 gave a Kd of over 2300 nM.

B12: Id_ii_S2_P3E.4_K3.3_C3.2_H3.3_A3.1_F3.1_T3.2_[A10C] (ssRNA)
RNA: B10 RNA with U28C, C29U, C38U, U39C
B12 was tested, and the Kd was 343 nM.

B13: Id_ii_S2_P3E.4_K3.3_C3.2_[C-2T]_[T-1A]_H3.3_A3.1_F3.1_T3.2_[T9A] (ssRNA)
RNA: B10 RNA with C29A, C38A, U39A
B13 showed a Kd of over 2300 nM.

B14: Id_ii_S2_P3E.4_K3.3_C3.2_[C-2A]_[T-1C]_H3.3_A3.1_F3.1_T3.2_[A10T] (ssRNA)
RNA: B10 RNA with U28A, C38U
B14 was tested, and the Kd was 868 nM.

B15: Id_ii_S2_P3E.4_K3.3_C3.2_[T-1G]_H3.3_A3.1_F3.1_T3.2_[A10T] (ssRNA)
RNA: B10 RNA with U28C, C29G, C38U
Work on B15 yielded a Kd of 1500 nM.

B16: Id_ii_S2_P3E.4_K3.3_C3.2_[T-1C]_H3.3_A3.1_F3.1_T3.2 (ssRNA)
RNA: B10 RNA with U28C, C38U, U39A
In the case of B16, the Kd is reported as 194 nM.

B17: Id_ii_S2_P3E.4_K3.3_C3.2_[T-1C]_H3.3_A3.1_F3.1_T3.2_[T9A]_[A10T] (ssRNA)
RNA: B10 RNA with U28C, C38A
For B17, the Kd was 1890 nM.

B18: Id_ii_S2_P3E.4_K3.3_C3.2_[T-1C]_H3.3_A3.1_F3.1_T3.2_[T9C]_[A10C] (ssRNA)
RNA: B10 RNA with U28C, U39C
Binder B18 has a Kd of 1460 nM.

B19: Id_ii_S2_P3E.4_K3.3_C3.2_[C-2A]_[T-1A]_H3.3_A3.1_F3.1_T3.2_[A10C] (ssRNA)
RNA: B10 RNA with U28A, C29A, C38U, U39C
With B19 the Kd was 1770 nM.

B20: Id_ii_S2_P3E.4_K3.3_C3.2_[C-2A]_H3.3_A3.1_F3.1_T3.2_[T9C]_[A10C] (ssRNA)
RNA: B10 RNA with U28A, C29U, U39C
In the case of B20, the Kd is reported as 15.5 nM.

B21: Id_ii_S2_P3E.4_K3.3_C3.2_[C-2T]_H3.3_A3.1_F3.1_T3.2_[A10G] (ssRNA)
RNA: B10 RNA with C29U, C38U, U39G
For B21, the Kd was over 2300 nM.

B22: Id_ii_S2_P3E.4_K3.3_C3.2_[T-1A]_H3.3_A3.1_F3.1_T3.2_[T9C]_[A10C] (ssRNA)
RNA: B10 RNA with U28C, C29A, U39C
With B22 the Kd was 2100 nM.
